B1: S. cerevisiae Abp1 (full length; SH3 domain 535-592 mutated) / Hua2 (parent complex)
chain 1: MALEPIDYTTHSREIDAEYLKIVRGSDPDTTWLIISPNAKKEYEPESTGSSFHDFLQLFDETKVQYGLARVSPPGSDVEKIIIIGWCPDSAPLKTRASFAANFAAVANNLFKGYHVQVTARDEDDLDENELLMKISNAAGARYSIQTSSKQQGKASTPPVKKSFTPSKSPAPVSKKEPVKTPSPAPAAKISSRVNDNNDDDDWNEPELKERDFDQAPLKPNQSSYKPIGKIDLQKVIAEEKAKEDPRLVQKPTAAGSKIDPSSDIANLKNESKLKRDSEFNSFLGTTKPPSMTESSLKNDDDKVIKGFRNEKSPAQLWAERKAKQNSGNAETKAEAPKPEVPEDEPEGEPDVKDLKSKFEGLAASEKEEEEMENKFAPPPKKSEPTIISPKPFSKPQEPVKAEEAEQPKTDYKKIGNPLPGMHIEADNEEEPEENDDDWDDDEDEAAQPPLPSRNVASGAPVQKEEPEQEEIAPSLPSRNSIPAPKQEEAPEQAPEEEIEEEAEEAAPQLPSRSSAAPPPPPRRATPEKKPKENPWATAEYDYDAAEDNELTFVENDKIINIEFVDDDWWLGELEKDGSKGLFPSNYVSLGN
chain 2: MQQTKFGKMYLDHDSVVEYSEDEIVEADRITLGYKKRLSMIENQMRHLLEDFSLDVQQIEPILADLQKYYDAFLQLLQKRNKSLQCKRSTHQPVPSPMNSQTSTNAKVNLSGKLMKFQLNSVQKFDEENILRILQNKIEFEHYFQIDKGKKQKVLLLAVYQCLNGPTRLHKVLNIEGIIHNNSIRTILGKQVSSSKWTVFLYDVKLVLLAHRQDVPNLETSKMIVRYGDLFPCALYFKDHTAY

The variants in this assay derive from B1. In words: DHFR protein-fragment complementation in yeast (Abp1-DHFR F[1,2] x partner-DHFR F[3]), deep mutational scanning, second methotrexate selection vs reference; S. cerevisiae, DHFR-PCA selection in liquid with methotrexate at 30 C, two 72 h selections (the score uses the second); reference = the pre-selection culture.
Regarding chain 1 K580S, the screen value is -0.00598 DMS score: mean over two replicates of log2(f_test/f_ref + 0.5)/ln 2, minus the synonymous-codon median (not a log2 ….

For the variant chain 1 K580E, the screen value was -0.984 DMS score: mean over two replicates of log2(f_test/f_ref + 0.5)/ln 2, minus the synonymous-codon median (not a log2 ….

With chain 1 K580N, the screen value was -0.698 DMS score: mean over two replicates of log2(f_test/f_ref + 0.5)/ln 2, minus the synonymous-codon median (not a log2 ….

Regarding chain 1 L571A, the screen value is -0.0753 DMS score: mean over two replicates of log2(f_test/f_ref + 0.5)/ln 2, minus the synonymous-codon median (not a log2 ….

For the variant chain 1 E540K, the screen value is -2.41 DMS score: mean over two replicates of log2(f_test/f_ref + 0.5)/ln 2, minus the synonymous-codon median (not a log2 ….

Turning to chain 1 E540I, the screen value is -2.91 DMS score: mean over two replicates of log2(f_test/f_ref + 0.5)/ln 2, minus the synonymous-codon median (not a log2 ….

For the variant chain 1 E540H, the screen value is -2.15 DMS score: mean over two replicates of log2(f_test/f_ref + 0.5)/ln 2, minus the synonymous-codon median (not a log2 ….

As to chain 1 E540M, the screen value was -2.49 DMS score: mean over two replicates of log2(f_test/f_ref + 0.5)/ln 2, minus the synonymous-codon median (not a log2 ….

Take chain 1 E555Y: the screen value is -0.189 DMS score: mean over two replicates of log2(f_test/f_ref + 0.5)/ln 2, minus the synonymous-codon median (not a log2 ….

For chain 1 E555F, the screen value is -0.693 DMS score: mean over two replicates of log2(f_test/f_ref + 0.5)/ln 2, minus the synonymous-codon median (not a log2 ….

For the variant chain 1 E555M, the screen value is 0.105 DMS score: mean over two replicates of log2(f_test/f_ref + 0.5)/ln 2, minus the synonymous-codon median (not a log2 ….

Turning to chain 1 E555A, the screen value was 1.03 DMS score: mean over two replicates of log2(f_test/f_ref + 0.5)/ln 2, minus the synonymous-codon median (not a log2 ….

As for chain 1 Y587H, the screen value was -0.477 DMS score: mean over two replicates of log2(f_test/f_ref + 0.5)/ln 2, minus the synonymous-codon median (not a log2 ….

For the variant chain 1 Y587I, the screen value is -0.578 DMS score: mean over two replicates of log2(f_test/f_ref + 0.5)/ln 2, minus the synonymous-codon median (not a log2 ….

On to chain 1 L590F, for which the screen value is -0.882 DMS score: mean over two replicates of log2(f_test/f_ref + 0.5)/ln 2, minus the synonymous-codon median (not a log2 ….

For chain 1 V554M, the screen value is -0.0016 DMS score: mean over two replicates of log2(f_test/f_ref + 0.5)/ln 2, minus the synonymous-codon median (not a log2 ….

On to chain 1 V554E, for which the screen value was 0.602 DMS score: mean over two replicates of log2(f_test/f_ref + 0.5)/ln 2, minus the synonymous-codon median (not a log2 ….

With chain 1 V554D, the screen value was 0.269 DMS score: mean over two replicates of log2(f_test/f_ref + 0.5)/ln 2, minus the synonymous-codon median (not a log2 ….

Take chain 1 V554G: the screen value was 0.246 DMS score: mean over two replicates of log2(f_test/f_ref + 0.5)/ln 2, minus the synonymous-codon median (not a log2 ….

On to chain 1 V554F, for which the screen value is 0.446 DMS score: mean over two replicates of log2(f_test/f_ref + 0.5)/ln 2, minus the synonymous-codon median (not a log2 ….

Regarding chain 1 V554N, the screen value was 0.128 DMS score: mean over two replicates of log2(f_test/f_ref + 0.5)/ln 2, minus the synonymous-codon median (not a log2 ….

Regarding chain 1 W536V, the screen value is -0.259 DMS score: mean over two replicates of log2(f_test/f_ref + 0.5)/ln 2, minus the synonymous-codon median (not a log2 ….

On to chain 1 S579C, for which the screen value is -0.407 DMS score: mean over two replicates of log2(f_test/f_ref + 0.5)/ln 2, minus the synonymous-codon median (not a log2 ….

Regarding chain 1 S579K, the screen value is -0.28 DMS score: mean over two replicates of log2(f_test/f_ref + 0.5)/ln 2, minus the synonymous-codon median (not a log2 ….

Consider chain 1 S579N, for which the screen value was 0.51 DMS score: mean over two replicates of log2(f_test/f_ref + 0.5)/ln 2, minus the synonymous-codon median (not a log2 ….

Turning to chain 1 L582K, the screen value is -2.94 DMS score: mean over two replicates of log2(f_test/f_ref + 0.5)/ln 2, minus the synonymous-codon median (not a log2 ….

For chain 1 G578N, the screen value is 0.0866 DMS score: mean over two replicates of log2(f_test/f_ref + 0.5)/ln 2, minus the synonymous-codon median (not a log2 ….

As for chain 1 G578A, the screen value is -0.527 DMS score: mean over two replicates of log2(f_test/f_ref + 0.5)/ln 2, minus the synonymous-codon median (not a log2 ….

As for chain 1 G578H, the screen value was 0.339 DMS score: mean over two replicates of log2(f_test/f_ref + 0.5)/ln 2, minus the synonymous-codon median (not a log2 ….

Take chain 1 G578S: the screen value was -0.671 DMS score: mean over two replicates of log2(f_test/f_ref + 0.5)/ln 2, minus the synonymous-codon median (not a log2 ….

Turning to chain 1 F553L, the screen value is 0.618 DMS score: mean over two replicates of log2(f_test/f_ref + 0.5)/ln 2, minus the synonymous-codon median (not a log2 ….

As for chain 1 G591C, the screen value is -0.973 DMS score: mean over two replicates of log2(f_test/f_ref + 0.5)/ln 2, minus the synonymous-codon median (not a log2 ….

For the variant chain 1 G591Y, the screen value was -0.189 DMS score: mean over two replicates of log2(f_test/f_ref + 0.5)/ln 2, minus the synonymous-codon median (not a log2 ….

For the variant chain 1 G591V, the screen value was -0.0626 DMS score: mean over two replicates of log2(f_test/f_ref + 0.5)/ln 2, minus the synonymous-codon median (not a log2 ….

Regarding chain 1 G591S, the screen value is 0.409 DMS score: mean over two replicates of log2(f_test/f_ref + 0.5)/ln 2, minus the synonymous-codon median (not a log2 ….

As to chain 1 G591I, the screen value is 0.474 DMS score: mean over two replicates of log2(f_test/f_ref + 0.5)/ln 2, minus the synonymous-codon median (not a log2 ….

On to chain 1 G591D, for which the screen value is -0.157 DMS score: mean over two replicates of log2(f_test/f_ref + 0.5)/ln 2, minus the synonymous-codon median (not a log2 ….

With chain 1 G591H, the screen value was -0.407 DMS score: mean over two replicates of log2(f_test/f_ref + 0.5)/ln 2, minus the synonymous-codon median (not a log2 ….

The record behind these values is publication PMC7954794 (2021).
